Results: patent US20230192896A1 (BIOVERATIV THERAPEUTICS, published 2023)
Numbering of substitutions follows the chain as printed.

B1: BIIB-12-891 (antibody, V domains shown)
VH: QVQLVQSGAEVKKPGASVKVSCKASGYTFTSYYIHWVRQAPGQGLEWMGIINPSGGSTSYAQKFQGRVTMTRDTSTSTVYMELSSLRSEDTAVYYCARASIYRGLGAFDIWGQGTMVTVSS
VL: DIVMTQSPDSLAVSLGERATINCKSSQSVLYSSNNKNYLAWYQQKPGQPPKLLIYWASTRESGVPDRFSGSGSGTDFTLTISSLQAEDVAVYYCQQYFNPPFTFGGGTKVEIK
notes: IgG
B2: BIIB-12-892 (antibody, V domains shown)
VH: B1 VH with I34M, A99G, S100L, I101G, Y102R, G104T, L105P, G106T
VL: EIVLTQSPATLSLSPGERATLSCRASQSVSSYLAWYQQKPGQAPRLLIYDASNRATGIPARFSGSGSGTDFTLTISSLEPEDFAVYYCQQRLNLPLTFGGGTKVEIK
notes: IgG
B3: BIIB-12-893 (antibody, V domains shown)
VH: QVQLVQSGAEVKKPGASVKVSCKASGYTFTSYYMVWVRQAPGQGLEWMGIINPSGGSTSYAQKFQGRVTMTRDTSTSTVYMELSSLRSEDTAVYYCARDPGRRQYSFYGMDVWGQGTTVTVSS
VL: DIQLTQSPSSVSASVGDRVTITCRASQGISSWLAWYQQKPGKAPKLLIYAASSLQSGVPSRFSGSGSGTDFTLTISSLQPEDFATYYCQQAAAFPFTFGGGTKVEIK
notes: IgG
B4: BIIB-12-895 (antibody, V domains shown)
VH: QVQLVQSGAEVKKPGASVKVSCKASGYTFTSYYMHWVRQAPGQGLEWMGIINPSGGSTSYAQKFQGRVTMTRDTSTSTVYMELSSLRSEDTAVYYCARGGGYKSRGIDYWGQGTLVTVSS
VL: DIQMTQSPSSVSASVGDRVTITCRASQGISSWLAWYQQKPGKAPKLLIYAASSLQSGVPSRFSGSGSGTDFTLTISSLQPEDFATYYCQQASSFPFTFGGGTKVEI
notes: IgG
B5: BIIB-12-896 (antibody, V domains shown)
VH: B4 VH with G100L, Y102Q, K103Q, S104R, I107F, Y109I
VL: B3 VL with L4M, A92N, A93S
notes: IgG
B6: BIIB-12-1290 (antibody, V domains shown)
VH: B4 VH with S54G, G99E, Y102R, K103Y, S104V, I107M, Y109V, L115T
VL: B3 VL with L4M, A91G, A92F, A93S
notes: IgG
B7: BIIB-12-1293 (antibody, V domains shown)
VH: B4 VH with G100S, Y102G, S104H, I107L, Y109V, L115M
VL: B3 VL with L4M, A92N, A93I
notes: IgG
B8: BIIB-12-897 (antibody, V domains shown)
VH: QLQLQESGPGLVKPSETLSLTCTVSGGSISSSSYYWGWIRQPPGKGLEWIGSIYYSGSTYYNPSLKSRVTISVDTSKNQFSLKLSSVTAADTAVYYCAREGRTYYGGWFDPWGQGTLVTVSS
VL: EIVLTQSPGTLSLSPGERATLSCRASQSVSSSYLAWYQQKPGQAPRLLIYGASSRATGIPDRFSGSGSGTDFTLTISRLEPEDFAVYYCQQDGNYPYTFGGGTKVEIK
notes: IgG
B9: BIIB-12-898 (antibody, V domains shown)
VH: QVQLVQSGAEVKKPGASVKVSCKASGYTFTSYYMHWVRQAPGQGLEWMGIINPSGGSTTYAQKFQGRVTMTRDTSTSTVYMELSSLRSEDTAVYYCARGDRMLRAFDPWGQGTLVTVSS
VL: B3 VL with S10T, V11L, G28A, A50D, Q55E, D70E, E81D, A91V, A92N, A93R
notes: IgG
B10: BIIB-12-1294 (antibody, V domains shown)
VH: B9 VH with T59S, D100T, M102S, L103S, A105D, F106M, P108V, L114T
VL: DIQMTQSPSTLSASVGDRVTITCRASQSISSWLAWYQQKPGKAPKLLIYKASSLESGVPSRFSGSGSGTEFTLTISSLQPDDFATYYCQQVNTFPFTFGGGTKVEIK
notes: IgG
B11: BIIB-12-899 (antibody, V domains shown)
VH: QVQLVQSGAEVKKPGASVKVSCKASGYTFTSYYMHWVRQAPGQGLEWMGIINPSGGSTSYAQKFQGRVTMTRDTSTSTVYMELSSLRSEDTAVYYCARGPRTSSPLYFDLWGRGTLVTVSS
VL: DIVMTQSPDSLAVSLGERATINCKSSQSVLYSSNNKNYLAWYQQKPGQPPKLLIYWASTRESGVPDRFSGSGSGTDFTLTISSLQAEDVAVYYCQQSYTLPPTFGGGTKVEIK
notes: IgG
B12: BIIB-12-900 (antibody, V domains shown)
VH: QVQLVQSGAEVKKPGASVKVSCKASGYTFTSYYMHWVRQAPGQGLEWMGIINPGGGSTSYAQKFQGRVTMTRDTSTSTVYMELSSLRSEDTAVYYCARSGGMYDRELGMDVWGQGTTVTVSS
VL: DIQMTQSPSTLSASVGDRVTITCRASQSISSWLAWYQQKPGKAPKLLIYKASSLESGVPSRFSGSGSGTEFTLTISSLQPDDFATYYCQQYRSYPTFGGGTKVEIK
notes: IgG
B13: BIIB-12-901 (antibody, V domains shown)
VH: B12 VH with H35S, G54S, G100R, G101P, M102R, Y103R, D104P, R105S, E106P, L107Y
VL: B2 VL with R91S, L92A, L94F, L96F
notes: IgG
B14: BIIB-12-902 (antibody, V domains shown)
VH: QVQLVQSGAEVKKPGASVKVSCKASGYTFTSYYMHWVRQAPGQGLEWMGIINPGGGSTSYAQKFQGRVTMTRDTSTSTVYMELSSLRSEDTAVYYCARGGPRRAYSWYFDYWGQGTLVTVSS
VL: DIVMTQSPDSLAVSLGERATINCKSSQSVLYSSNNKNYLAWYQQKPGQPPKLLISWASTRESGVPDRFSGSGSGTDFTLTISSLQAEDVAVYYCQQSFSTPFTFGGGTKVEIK
notes: IgG
B15: BIIB-12-903 (antibody, V domains shown)
VH: B4 VH with G99D, G100L, K103T, S104A, R105G, G106A, I107F, D108G
VL: B2 VL with L92A, L94W, L96P
notes: IgG
B16: BIIB-12-904 (antibody, V domains shown)
VH: QVQLVESGGGVVQPGRSLRLSCAASGFTFSSYGMHWVRQAPGKGLEWVAVISYDGSNKYYADSVKGRFTISRDNSKNTLYLQMNSLRAEDTAVYYCARGSGRSGYHYWGQGTLVTVSS
VL: EIVMTQSPATLSVSPGERATLSCRASQSVSSNLAWYQQKPGQAPRLLIYGASTRATGIPARFSGSGSGTEFTLTISSLQSEDFAVYYCQQAFNWPPTFGGGTKVEIK
notes: IgG
B17: BIIB-12-912 (antibody, V domains shown)
VH: B16 VH with R98K, G99S, S100G, S103Y, H106D, Y107I, L113M
VL: B16 VL with A91F, F92H, W94F
notes: IgG
B18: BIIB-12-1299 (antibody, V domains shown)
VH: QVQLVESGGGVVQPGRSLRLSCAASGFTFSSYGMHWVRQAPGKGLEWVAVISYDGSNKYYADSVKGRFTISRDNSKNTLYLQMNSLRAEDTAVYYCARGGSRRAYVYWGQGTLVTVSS
VL: B16 VL with A91L, F92N, W94F, P96I
notes: IgG
B19: BIIB-12-905 (antibody, V domains shown)
VH: QVQLVESGGGVVQPGRSLRLSCAASGFTFSSYGMHWVRQAPGKGLEWVAVISYDGSNKYYADSVKGRFTISRDNSKNTLYLQMNSLRAEDTAVYYCAKGGTYLDTWGQGTLVTVSS
VL: B8 VL with S30R, D92Y, N94R, Y95F, Y97P
notes: IgG
B20: BIIB-12-928 (antibody, V domains shown)
VH: B19 VH with S7F, G9V
VL: B8 VL with S30R, D92Y, G93V, N94R, Y95F, Y97L
notes: IgG
B21: BIIB-12-906 (antibody, V domains shown)
VH: B19 VH with G99S, G100S, T101R, Y102H, L103F, T105Y, Q108R
VL: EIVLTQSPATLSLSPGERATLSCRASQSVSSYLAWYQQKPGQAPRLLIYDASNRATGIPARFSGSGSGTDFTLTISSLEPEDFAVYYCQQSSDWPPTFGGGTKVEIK
notes: IgG
B22: BIIB-12-1311 (antibody, V domains shown)
VH: B19 VH with G100R, T101H, L103W, D104A, T105V
VL: B2 VL with R91A, L92S, L96P
notes: IgG
B23: BIIB-12-907 (antibody, V domains shown)
VH: QVQLQESGPGLVKPSETLSLTCAVSGYSISSGYYWAWIRQPPGKGLEWIGSIYHSGSTYYNPSLKSRVTISVDTSKNQFSLKLSSVTAADTAVYYCARESGMSGAAYWGQGTLVTVSS
VL: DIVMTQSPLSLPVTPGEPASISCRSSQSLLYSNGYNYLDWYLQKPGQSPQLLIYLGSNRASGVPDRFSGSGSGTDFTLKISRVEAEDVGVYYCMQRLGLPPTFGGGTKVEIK
notes: IgG
B24: BIIB-12-1314 (antibody, V domains shown)
VH: B19 VH with G100T, T101R, Y102W, L103A, D104G, T105N
VL: B3 VL with L4M, A92N, A93F, F96I
notes: IgG
B25: BIIB-12-908 (antibody, V domains shown)
VH: B19 VH with G100P, T101R, Y102G, L103M, T105V, L111T
VL: B3 VL with A50G, A91G, A92S, A93S, F94L, F96I
notes: IgG
B26: BIIB-12-1300 (antibody, V domains shown)
VH: B19 VH with K98R, G100S, T101K, D104H, T105A
VL: B3 VL with L4M, A92S, A93S, F96P
notes: IgG
B27: BIIB-12-909 (antibody, V domains shown)
VH: QVQLVESGGGVVQPGRSLRLSCAASGFTFSSYGMHWVRQAPGKGLEWVAVISYDGSNKYYADSVKGRFTISRDNSKNTLYLQMNSLRAEDTAVYYCAKGKHRRRSFDIWGQGTMVTVSS
VL: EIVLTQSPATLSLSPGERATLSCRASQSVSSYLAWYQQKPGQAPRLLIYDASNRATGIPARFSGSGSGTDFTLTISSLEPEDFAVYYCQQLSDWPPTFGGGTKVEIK
notes: IgG
B28: BIIB-12-910 (antibody, V domains shown)
VH: QVQLQESGPGLVKPSQTLSLTCTVSGGSISSGGYYWSWIRQHPGKGLEWIGSIYYSGSTYYNPSLKSRVTISVDTSKNQFSLKLSSVTAADTAVYYCARGPLQRQVRYFDLWGRGTLVTVSS
VL: B3 VL with L4M, V11L, G28S, W32Y, A34N, A91L, A92S, A93H, F94T
notes: IgG
B29: BIIB-12-911 (antibody, V domains shown)
VH: QVQLVESGGGVVQPGRSLRLSCAASGFTFSSYGMHWVRQAPGKGLEWVAVISYDGSNKYYADSVKGRFTISRDNSKNTLYLQMNSLRAEDTAVYYCARGRGMDVWGQGTTVTVSS
VL: B2 VL with L92S, L94F, L96I
notes: IgG
B30: BIIB-12-913 (antibody, V domains shown)
VH: QVQLVQSGAEVKKPGASVKVSCKASGYTFTSYGISWVRQAPGQGLEWMGWISAYNGNTNYAQKLQGRVTMTTDTSTSTAYMELRSLRSDDTAVYYCARGGVSRFWGQGTLVTVSS
VL: EIVMTQSPATLSVSPGERATLSCRASQSVSSNLAWYQQKPGQAPRLLIYGASTRATGIPARFSGSGSGTEFTLTISSLQSEDFAVYYCQQYAPYPPLTFGGGTKVEIK
notes: IgG

Molecular target: T1, non-activatable Factor X (FXn) (Homo sapiens (Human), UniProt P00742 41-488, single biotin on the C-terminal BioTag)
T1 construct: also called BIIB-FX-015
Test: BLI; class meaning: paragraph 285

Binding result, binds:
B1
B2
B3
B4
B5
B6
B7
B8
B9
B10
B11
B12
B13
B14
B15
B16
B17
B18
B19
B20
B21
B22
B23
B24
B25
B26
B27
B28
B29
B30
